Source: patent US20090074770A1

What was measured:
[1] = target: human serum albumin (human) (UniProt P02768); assay: SPR (Biacore), ratio of off rates at pH 7 and pH 5
[2] = target: human serum albumin (human) (UniProt P02768); assay: SPR (Biacore T100), serum albumin immobilized on CM5 chip, running buffer pH 5, 25 C
[3] = target: human serum albumin (human) (UniProt P02768); assay: SPR (Biacore T100), serum albumin immobilized on CM5 chip, running buffer pH 7, 25 C

Ratio pH 7/pH 5 [1] | koff [2] [s⁻¹] | koff [3] [s⁻¹] | Binder
3.54 | 0.0227 | 0.00642 | Nanobody 4A2 (VHH, from a related filing) VHH: EVQLVESGGGLVQAGGSLRLSCAASGLSFSSYAMGWFRQAPGKEREFVAAIRRREGNSYYADSVKGRFTISRDSAKNTVYLQMNSLKPEDTALYSCAATAPHYSGSFAYAGGYDYWGQGTQVTVSS
2.42 | 0.0137 | 0.00565 | Nanobody 4D3 (VHH, from a related filing) VHH: EVQLVKSGGGLVQPGGSLRLSCAASGFTFSHYQMSWVRQAPGKDVEWVSSISMLGGGTTYADSVKGRFTISRDNAKSTLVLQMNNLKVEDTAVYYCARGFSGNYYRADLGQGTQVTVSS
